Test: soluble fraction after stress (log2 fold change); higher = more stays soluble; pooled small domains, quantitative proteomics
Details: stress: 50 degC
Outline: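 Pooled custom libraries of small protein domains were each held under stress at 50°C. The read-out, high-throughput quantitative proteomics, tracked how much of each protein stayed soluble. This is reported as a base-two log fold change used to indicate aggregation propensity. Higher values mean more protein remains in solution.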

Sequence | soluble fraction (log2)
HMITDNEFLRIVSFLKQRYGIDMSQKKVIMNGRLENYLKSGGWSSFDEYMNDVEKDTSGDLEKTLVNFLTT | -0.537
HMLNVNDVIARNVRAARERKKLTLDGAAELTGVSRSMLAQIEKGEVNPTISVVWKIANGFKVSFTSLVEPQ | -0.498
HMGYDVAEVKFRLIKLLRDSKIGISGVEISERLGINRVTMTKYLNIFSAEGVIGEKNIGNVNLWFVYEGIE | -1.68
HMQDNPELVARIEKAAARGTSSMSDWERSFMGSLLDSAKKWGRLTAKQHEVFQRIEKKTDPAHQAAVS | 0.0476
HMAQRAADEARTHEILGLLRQARAALDHGGTARAARLRASIAEKLPAAPALPAWFARQLEQVDSQLAELQD | -0.432
HMKKTDFNVENYDIEELAAILNFKYVPLNQGLIRDRIKDMKQRFKNKPEYIKFFTDVEIKLVNNLNLFN | -1.24
HMKRNLESVLDHIEGIGPKRRKALYKHFGNLDAMRVAELEELESVEGMNKKAALAVYEFFRRNS | 0.254
HMNLTSNDAYSRILNAIITSELRPGDTVTEIQLAQKFGFGRTPVREAIMRLENEGFIVSAERKKRVYIL | -2
HMENVQLRNFAIKATEAGIIKLSSDQRTFMWASNQKKLMTVPFDEHPYSAMAQFFKTDEGLAVFKSIEKKL | -1.12
HMDKKEFGKRLKNLRIRNKMSQQAMADSLGYTSRSTINKIEEGINEMSYDKIVRLMELYGLSRPDLGLEPI | -0.154
HMSDYYEVLGVTRQADAEEIKRAYRRKARQLHPDVAGPGHEEEFKEVTVAYEVLSDPEKRQAYDLGGQDAL | 0.179
HMTKQEYLNQLKNELVKQGVADAEDVVTEYEQHFAFKLADGFGEEEIAKKLGDPAAIASQFVG | 0.293
HMSSSLDQLTVREREILAQVSRGLSNKAIARELGISHDTVKLHVRHILSKLGFSSRVEAAVFAIEHRIG | -1.72
HMTTLDTVARQLRDRIREQLDPTGEMSDESLLRTIEEAVYRYSSSGHVLTANEKETVIRRIFHSFR | 0.0252
HMLTPSRVLPYLFEDSFFIDTLSLEKDQVVGFLEYIDERLPPQDLMNKSKEFELIDYLINESEAYLSQ | 0.0334
HMRKVTDTHELSSVVKSVIDQWEEKAAEYRAGKSGLLGFFVGEVMKKTGGAADPEAAKSLLQDRLD | 0.18
HMEQWVSIEVEPGIRLDVALTEATQKSRSFIQNLIAEQRVLVNGQPKKANYKVRPGDHVELNYPEPT | 0.0849
HMAADRRKAERPLIDGQAVMDRFEVGPGPMVGKALKFLLALKRAEPDLDLAGTEERLDAWWNEQL | 0.262
HMGNLIIFYDAQTGSAPLLKAVKTSGATLVYEYKNLHGIAIRPSSKTSIEDAIAYFKKVNGVLSVE | -1.84

Sequence | soluble fraction (log2)
HMNDGEIAAPVSGTLQSFKVEDGQTVSEGDLVAVMEAMKMETQILATKGGTIRLLVKEGDYLQAGHALMTI | -0.525
HMVVTRVKAIDVVNIRKSDSETADKLGKAAVGDEFDLLEKKGNGWSKISYEGGEAYIKSEFLEPSE | 0.145
HMALLKRQDEILMYLYTQNKWITGNELAQLFHVSLRTIRNDISFINTEKSNSVLSNRNKGYHIAKDFVYNE | -0.924
HMSEDAVKFRAAVEVENGLAQRNLNKNQAALILGVDRSYFTYIISGKKTPSPDMAKRIGLLLGFDWRVFYA | -2.03
HMNADRIVGQTAKVIHPITPDEKGRVMVDNLDWAAAAQNRGESFEVGEEVSIVRIEGVTVYVQK | 0.209
HMDTSAHEVLSAIRSIIEDEDKRHPLSDEAITSRLSQQGYDIARRTVAKYRERLGLPVARLRRE | -0.0213
HMANPEFAGYINGKPYFGPTHQHRGVKMLGATHTRNPHPLVWDSIAESLANYDSRFRWSGGQIL | -0.429
HMEVSEGEIREKVESVFSSNPRQAYNYKQISKKLNINDKSERQIVWDVLRKLAGSGKIQEVEHGRFRARAE | 0.122
HMYDNTVTKYVNSLSVYVRKGPSTSDEIVTSLIKDTDVTVVGENGEWYKIKYKEFEGYIYKNLLSDNKT | -0.254
HMINNINKLPETQFIKLFANIFENSQFIAVALYKKKGDGFSDFKDLINKIMDIFENTTKEKKLKILNA | -0.0982
HMLPGVPVVAGKTQSAATRILKAAGYAVSVVREEAFDGVTGTVLRTSPEAGSPLAPGSRVTLVVLQVV | -0.27
HMAQPIPSGSDIREAREAAGMNLRDFARMVGGGAIGTWSHYETGKPIRVKSISPEVWQRVRDFILQHGK | -0.417
HMLAAGTPLTVVTESSNLNIRQEPSTEAAVVGKAAKGEIVTLVEQTSGEWWKVSTKDGEEGYAYSRYL | 0.341
HMGLQLTPVRRRVLEILLHEHRALGAYDILDKLRSEGLGSQPPVAYRALDFLVTHGFAHKIERLNAF | -0.609
HMAFIEADIGKRIKSLRNKKRITLESLAAETGFTKGYLSKVETSEKAPPVSTLGSIARALGVSISTLLGE | -0.224
HMSNWYKNNETDQIWWKDTPDSVGEWLFSFDKKQVFNMFADYPHNLTPEQKKIFDEENPEWSDRP | -0.328
HMNTPLYLKIREQIFDALRSGRWAANDPLPSETKLASEFEVSQGTIRKAIDDLVAQNILYRHQGRGTFIRR | -0.5
HMTHFRTDERRREILSTIEADGRVSVSEIASRFDVSPVTIRSDLNYLAIQGKLKRVRGGAVLLDH | -0.76
HMFERIYVFSRDGDIIELPKGSTVLDFAYHVHTHVGNRAQAARVNKRYVPLTYQLKTGEQVEIIIS | -1.2
